Test results from patent publication US20240035010, “COMPOSITIONS COMPRISING A VARIANT POLYPEPTIDE AND USES THEREOF” (Arbor Biotechnologies, Inc., published 2024).
Residue numbers refer to the chain shown, from its start.

Legend:
[1] = biological target: T1, variant nuclease E736G combination (P14R, D32R, I61R, E311R, E736G); test: cell_activity; PAM 5'-TTTA-3'; settings: tags: pcDNA3.1 expression
T1 chain: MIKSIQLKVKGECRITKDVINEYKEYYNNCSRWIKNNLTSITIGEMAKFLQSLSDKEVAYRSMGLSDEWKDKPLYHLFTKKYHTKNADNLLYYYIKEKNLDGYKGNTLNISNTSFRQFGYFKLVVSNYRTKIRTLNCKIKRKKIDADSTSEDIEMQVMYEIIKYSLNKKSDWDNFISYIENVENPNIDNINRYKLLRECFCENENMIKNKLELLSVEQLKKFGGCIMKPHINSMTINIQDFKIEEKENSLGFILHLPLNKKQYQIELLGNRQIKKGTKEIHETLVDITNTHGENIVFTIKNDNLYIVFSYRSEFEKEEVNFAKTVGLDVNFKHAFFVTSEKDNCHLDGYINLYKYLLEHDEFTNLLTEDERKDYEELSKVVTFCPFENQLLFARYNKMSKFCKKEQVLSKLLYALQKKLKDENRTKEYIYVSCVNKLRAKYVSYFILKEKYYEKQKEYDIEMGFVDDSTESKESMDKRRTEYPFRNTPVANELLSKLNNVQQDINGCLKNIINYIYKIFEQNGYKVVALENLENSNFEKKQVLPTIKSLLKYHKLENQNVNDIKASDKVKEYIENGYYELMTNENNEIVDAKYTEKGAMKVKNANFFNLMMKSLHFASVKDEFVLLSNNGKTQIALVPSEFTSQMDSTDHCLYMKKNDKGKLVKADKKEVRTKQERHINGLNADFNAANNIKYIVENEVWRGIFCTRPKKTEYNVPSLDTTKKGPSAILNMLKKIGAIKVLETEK
Outline: (§1)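 HEK293T cells were lipofected with nuclease plasmid (pcDNA3.1 backbone) plus RNA guide plasmid, with guide omitted in negative controls. After ~72 h cells were lysed in QuickExtract and % indels were derived from NGS reads, averaged over two bioreplicates and two technical replicates.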

[2] = biological target: T2, variant nuclease K35G combination (P14R, D32R, I61R, E311R, K35G); test: cell_activity; PAM 5'-TTTA-3'; settings: tags: pcDNA3.1 expression
T2 chain: T1 chain with K35G, G736E
Outline: as §1

B1: VEGFA crRNA ; VEGFA target (ssRNA ; dsDNA)
RNA: CUUGUUGUAUAUGUCCUUUUAUAGGUAUUAAACAACUCCAGACCACCAAUGGGCAC
DNA 1: TCCAGACCACCAATGGGCAC
DNA 2: GTGCCCATTGGTGGTCTGGA
indel activity [1]: 2.65 fold of WT | indel activity [2]: 2.69 fold of WT
